Laboratory results from paper PMC12752648.

Experiments:
[1] = molecular target: oncolytic virus M1 (OVM) virions; experiment: virus binding to cells measured by qRT-PCR; settings: 22Rv1 cells expressing TPRA1 variants; parent: est. 1.4; read off a plot
[2] = GFP-positive 22Rv1 cells by flow cytometry, 48 h; settings: glycan lost; control: wild-type TPRA1
[3] = molecular target: oncolytic virus M1 (OVM) virions (oncolytic virus M1 (Getah-like alphavirus)); experiment: BLI; Octet RED96e; OVM loaded on aminopropylsilane (APS) biosensors in PBS; TPRA1-ECD-Fc (0.5-8 µM) or Fc (8 µM) in PBS with 0.02% Tween-20 and 1 mg/mL BSA; 1:1 binding model

HA-tagged full-length TPRA1 (from UniProt Q86W33-1) N11Q; N23Q
other: Relative change in binding [1]: 0.35

TPRA1 (transmembrane protein adipocyte-associated 1): N11/23Q
other: susceptibility of cells to viral infection [2]: decreases

recombinant extracellular domain of TPRA1 fused to an Fc tag (TPRA1-ECD-Fc) (from UniProt Q86W33-1 1-47) (Fc fusion)
Kd [3]: 91 nM
